Measurements published in IntAct's records for PubMed 18086875.

Columns and labels:
fak2_human PTK2B [1] = biological target: fak2_human PTK2B (UniProt Q14289)
fak2_human PTK2B [2] = biological target: fak2_human PTK2B (UniProt Q14289); remark: listed apart in the source
fak1_human PTK2 = fak1_human PTK2 (UniProt Q05397)
pak1_human PAK1 = pak1_human PAK1 (UniProt Q13153)
pak1_human PAK1, sequence (Q13153 whole entry): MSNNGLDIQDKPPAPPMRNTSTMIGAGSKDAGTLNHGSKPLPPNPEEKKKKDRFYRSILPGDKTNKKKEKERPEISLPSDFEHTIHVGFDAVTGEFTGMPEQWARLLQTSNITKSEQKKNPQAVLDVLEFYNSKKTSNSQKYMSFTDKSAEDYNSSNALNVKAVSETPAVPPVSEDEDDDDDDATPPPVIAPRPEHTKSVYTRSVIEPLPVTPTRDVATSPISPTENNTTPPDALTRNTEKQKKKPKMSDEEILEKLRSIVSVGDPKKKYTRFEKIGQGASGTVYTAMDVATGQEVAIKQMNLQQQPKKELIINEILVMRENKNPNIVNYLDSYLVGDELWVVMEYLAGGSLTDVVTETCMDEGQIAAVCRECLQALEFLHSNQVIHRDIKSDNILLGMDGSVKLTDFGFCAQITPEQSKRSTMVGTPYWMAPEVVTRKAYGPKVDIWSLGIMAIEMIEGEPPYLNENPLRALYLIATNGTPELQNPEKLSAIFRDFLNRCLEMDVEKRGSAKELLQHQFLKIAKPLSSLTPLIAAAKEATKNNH

fak2_human PTK2B, sequence (Q14289 whole entry, looked up): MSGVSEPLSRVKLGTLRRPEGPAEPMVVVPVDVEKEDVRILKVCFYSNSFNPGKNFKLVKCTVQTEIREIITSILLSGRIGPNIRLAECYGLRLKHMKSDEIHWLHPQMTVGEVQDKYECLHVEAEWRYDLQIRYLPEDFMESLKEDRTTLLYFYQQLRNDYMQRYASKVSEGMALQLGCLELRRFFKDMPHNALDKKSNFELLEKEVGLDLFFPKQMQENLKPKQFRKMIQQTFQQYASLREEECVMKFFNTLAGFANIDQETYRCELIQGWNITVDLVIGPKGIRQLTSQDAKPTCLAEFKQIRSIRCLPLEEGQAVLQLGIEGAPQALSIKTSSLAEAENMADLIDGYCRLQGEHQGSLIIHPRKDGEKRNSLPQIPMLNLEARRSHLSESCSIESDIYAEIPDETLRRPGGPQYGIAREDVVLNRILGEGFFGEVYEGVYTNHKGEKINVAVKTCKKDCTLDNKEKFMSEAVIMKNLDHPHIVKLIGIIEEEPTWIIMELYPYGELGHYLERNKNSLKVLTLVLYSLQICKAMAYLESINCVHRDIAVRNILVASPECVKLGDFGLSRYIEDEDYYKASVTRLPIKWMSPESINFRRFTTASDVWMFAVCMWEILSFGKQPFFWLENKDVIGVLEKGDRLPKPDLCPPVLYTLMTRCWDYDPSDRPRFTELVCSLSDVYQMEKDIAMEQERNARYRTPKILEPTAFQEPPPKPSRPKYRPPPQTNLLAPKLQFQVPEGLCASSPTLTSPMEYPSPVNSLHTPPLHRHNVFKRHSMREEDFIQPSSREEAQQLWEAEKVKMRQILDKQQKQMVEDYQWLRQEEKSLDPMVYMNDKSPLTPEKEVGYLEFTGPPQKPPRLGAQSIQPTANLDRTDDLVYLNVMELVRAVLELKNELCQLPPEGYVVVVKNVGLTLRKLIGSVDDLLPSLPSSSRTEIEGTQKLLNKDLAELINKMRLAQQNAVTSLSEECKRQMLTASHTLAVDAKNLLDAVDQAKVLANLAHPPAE
fak1_human PTK2, sequence (Q05397 whole entry, looked up): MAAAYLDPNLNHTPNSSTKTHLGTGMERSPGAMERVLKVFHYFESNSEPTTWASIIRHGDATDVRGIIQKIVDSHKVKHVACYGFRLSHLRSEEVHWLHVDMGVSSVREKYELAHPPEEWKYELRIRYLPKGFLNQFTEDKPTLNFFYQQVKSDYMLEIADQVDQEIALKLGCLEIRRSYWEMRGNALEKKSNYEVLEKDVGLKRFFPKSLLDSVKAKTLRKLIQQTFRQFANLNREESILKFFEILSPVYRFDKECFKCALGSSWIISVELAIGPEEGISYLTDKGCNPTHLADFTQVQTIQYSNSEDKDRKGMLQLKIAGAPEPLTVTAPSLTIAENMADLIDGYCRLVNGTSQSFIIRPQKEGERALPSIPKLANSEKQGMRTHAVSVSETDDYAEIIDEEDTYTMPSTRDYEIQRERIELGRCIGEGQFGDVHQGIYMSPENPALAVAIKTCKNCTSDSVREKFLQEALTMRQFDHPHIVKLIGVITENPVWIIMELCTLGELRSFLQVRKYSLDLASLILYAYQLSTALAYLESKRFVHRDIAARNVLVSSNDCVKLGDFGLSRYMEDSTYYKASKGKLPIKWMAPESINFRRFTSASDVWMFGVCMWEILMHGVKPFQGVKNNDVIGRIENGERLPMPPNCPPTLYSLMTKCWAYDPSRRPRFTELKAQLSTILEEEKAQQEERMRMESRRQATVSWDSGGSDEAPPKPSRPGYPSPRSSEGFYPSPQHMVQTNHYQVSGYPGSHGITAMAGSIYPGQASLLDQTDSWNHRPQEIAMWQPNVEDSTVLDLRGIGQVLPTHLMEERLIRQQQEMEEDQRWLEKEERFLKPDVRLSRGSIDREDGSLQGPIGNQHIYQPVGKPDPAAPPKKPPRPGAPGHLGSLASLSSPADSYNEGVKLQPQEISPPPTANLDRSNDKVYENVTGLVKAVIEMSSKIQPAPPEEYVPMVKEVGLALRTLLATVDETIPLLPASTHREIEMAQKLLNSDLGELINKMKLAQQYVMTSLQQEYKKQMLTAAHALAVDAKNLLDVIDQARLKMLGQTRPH
Rho-related GTP-binding protein RhoU (Homo sapiens), Q7L0Q8 F86C, sequence (Q7L0Q8 whole entry F86C): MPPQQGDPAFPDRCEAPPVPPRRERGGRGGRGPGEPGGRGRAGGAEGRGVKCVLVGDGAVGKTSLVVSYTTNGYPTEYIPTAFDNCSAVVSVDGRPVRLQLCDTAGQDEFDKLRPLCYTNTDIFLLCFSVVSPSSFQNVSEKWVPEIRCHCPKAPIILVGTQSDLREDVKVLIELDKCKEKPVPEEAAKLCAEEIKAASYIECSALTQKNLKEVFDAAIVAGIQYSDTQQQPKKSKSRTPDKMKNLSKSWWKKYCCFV

Substance	effect of a mutation on the interaction (fak2_human PTK2B [1])	effect of a mutation on the interaction (fak2_human PTK2B [2])	effect of a mutation on the interaction (fak1_human PTK2)	effect of a mutation on the interaction (pak1_human PAK1)
Rho-related GTP-binding protein RhoU (Homo sapiens), Q7L0Q8 F83G	disrupting interaction			
Rho-related GTP-binding protein RhoU (Homo sapiens), Q7L0Q8 P80G	disrupting interaction			decreasing interaction
Rho-related GTP-binding protein RhoU (Homo sapiens), Q7L0Q8 F86C	disrupting interaction			decreasing interaction

Further lines, results first:

effect of a mutation on the interaction (fak2_human PTK2B [1])	effect of a mutation on the interaction (fak2_human PTK2B [2])	effect of a mutation on the interaction (fak1_human PTK2)	effect of a mutation on the interaction (pak1_human PAK1)	Substance
	disrupting interaction	decreasing interaction		Rho-related GTP-binding protein RhoU (Homo sapiens), Q7L0Q8 T63N
		decreasing interaction		Rho-related GTP-binding protein RhoU (Homo sapiens), Q7L0Q8 Q107L
